Measurements published in PMC8582233 (2021).

Target: Recombinant SARS-CoV-2 S1 (SARS-CoV-2)
Test: MST

B1: Recombinant DC-SIGN/CD209 (receptor)
chain: QVSKVPSSISQEQSRQDAIYQNLTQLKAAVGELSEKSKLQEIYQELTQLKAAVGELPEKSKLQEIYQELTRLKAAVGELPEKSKLQEIYQELTWLKAAVGELPEKSKMQEIYQELTRLKAAVGELPEKSKQQEIYQELTRLKAAVGELPEKSKQQEIYQELTRLKAAVGELPEKSKQQEIYQELTQLKAAVERLCHPCPWEWTFFQGNCYFMSNSQRNWHDSITACKEVGAQLVVIKSAEEQNFLQLQSSRSNRFTWMGLSDLNQEGTWQWVDGSPLLPSFKQYWNRGEPNNVGEEDCAEFSGNGWNDDKCNLAKFWICKKSAASCSRDEEQFLSPAPATPNPPPA
With B1 as the binder, how does the Kd read?
The Kd was 3.76 nM.

B2: Recombinant L-SIGN/CD299 (receptor)
chain: QVSKVPSSLSQEQSEQDAIYQNLTQLKAAVGELSEKSKLQEIYQELTQLKAAVGELPEKSKLQEIYQELTRLKAAVGELPEKSKLQEIYQELTRLKAAVGELPEKSKLQEIYQELTRLKAAVGELPEKSKLQEIYQELTELKAAVGELPEKSKLQEIYQELTQLKAAVGELPDQSKQQQIYQELTDLKTAFERLCRHCPKDWTFFQGNCYFMSNSQRNWHDSVTACQEVRAQLVVIKTAEEQNFLQLQTSRSNRFSWMGLSDLNQEGTWQWVDGSPLSPSFQRYWNSGEPNNSGNEDCAEFSGSGWNDNRCDVDNYWICKKPAACFRDE
For B2, which Kd is on record?
The Kd was 3.27 nM.
